The values below come from patent US20210388087A1 (Chugai, published 2021).

B1: GLS3000 V94F (antibody, name in Kabat numbering, V domains shown)
VH: QVQLVESGGGVVQPGRSLRLSCAASGFTFSNAWMHWVRQAPGKGLEWVAQIKAKSNNYATYYAESVKGRFTISRDDSKNSLYLQMNSLKTEDTAVYYCRYVHYGAYYGVDAWGQGTTVTVSS
VL: DIVMTQSPLSLPVTPGEPASISCRSSQSLVHSNRNTYLHWYQQKPGQAPRLLIYKVSNRFSGVPDRFSGSGSGTDFTLKISRVEAEDVGVYYCGQGTQFPYTFGQGTKLEIK
notes: one-arm IgG as m2
B2: GLS3000 V94G (antibody, name in Kabat numbering, V domains shown)
VH: QVQLVESGGGVVQPGRSLRLSCAASGFTFSNAWMHWVRQAPGKGLEWVAQIKAKSNNYATYYAESVKGRFTISRDDSKNSLYLQMNSLKTEDTAVYYCRYVHYGAYYGVDAWGQGTTVTVSS
VL: DIVMTQSPLSLPVTPGEPASISCRSSQSLVHSNRNTYLHWYQQKPGQAPRLLIYKVSNRFSGVPDRFSGSGSGTDFTLKISRVEAEDVGVYYCGQGTQGPYTFGQGTKLEIK
notes: one-arm IgG as m2
B3: GLS3000 V94M (antibody, name in Kabat numbering, V domains shown)
VH: QVQLVESGGGVVQPGRSLRLSCAASGFTFSNAWMHWVRQAPGKGLEWVAQIKAKSNNYATYYAESVKGRFTISRDDSKNSLYLQMNSLKTEDTAVYYCRYVHYGAYYGVDAWGQGTTVTVSS
VL: DIVMTQSPLSLPVTPGEPASISCRSSQSLVHSNRNTYLHWYQQKPGQAPRLLIYKVSNRFSGVPDRFSGSGSGTDFTLKISRVEAEDVGVYYCGQGTQMPYTFGQGTKLEIK
notes: one-arm IgG as m2
B4: GLS3000 V94Q (antibody, name in Kabat numbering, V domains shown)
VH: QVQLVESGGGVVQPGRSLRLSCAASGFTFSNAWMHWVRQAPGKGLEWVAQIKAKSNNYATYYAESVKGRFTISRDDSKNSLYLQMNSLKTEDTAVYYCRYVHYGAYYGVDAWGQGTTVTVSS
VL: DIVMTQSPLSLPVTPGEPASISCRSSQSLVHSNRNTYLHWYQQKPGQAPRLLIYKVSNRFSGVPDRFSGSGSGTDFTLKISRVEAEDVGVYYCGQGTQQPYTFGQGTKLEIK
notes: one-arm IgG as m2
B5: GLS3000 V94R (antibody, name in Kabat numbering, V domains shown)
VH: QVQLVESGGGVVQPGRSLRLSCAASGFTFSNAWMHWVRQAPGKGLEWVAQIKAKSNNYATYYAESVKGRFTISRDDSKNSLYLQMNSLKTEDTAVYYCRYVHYGAYYGVDAWGQGTTVTVSS
VL: DIVMTQSPLSLPVTPGEPASISCRSSQSLVHSNRNTYLHWYQQKPGQAPRLLIYKVSNRFSGVPDRFSGSGSGTDFTLKISRVEAEDVGVYYCGQGTQRPYTFGQGTKLEIK
notes: one-arm IgG as m2
B6: GLS3000 V94T (antibody, name in Kabat numbering, V domains shown)
VH: QVQLVESGGGVVQPGRSLRLSCAASGFTFSNAWMHWVRQAPGKGLEWVAQIKAKSNNYATYYAESVKGRFTISRDDSKNSLYLQMNSLKTEDTAVYYCRYVHYGAYYGVDAWGQGTTVTVSS
VL: DIVMTQSPLSLPVTPGEPASISCRSSQSLVHSNRNTYLHWYQQKPGQAPRLLIYKVSNRFSGVPDRFSGSGSGTDFTLKISRVEAEDVGVYYCGQGTQTPYTFGQGTKLEIK
notes: one-arm IgG as m2
B7: GLS3000 V94H (antibody, name in Kabat numbering, V domains shown)
VH: QVQLVESGGGVVQPGRSLRLSCAASGFTFSNAWMHWVRQAPGKGLEWVAQIKAKSNNYATYYAESVKGRFTISRDDSKNSLYLQMNSLKTEDTAVYYCRYVHYGAYYGVDAWGQGTTVTVSS
VL: DIVMTQSPLSLPVTPGEPASISCRSSQSLVHSNRNTYLHWYQQKPGQAPRLLIYKVSNRFSGVPDRFSGSGSGTDFTLKISRVEAEDVGVYYCGQGTQHPYTFGQGTKLEIK
notes: one-arm IgG as m2
B8: GLS3000 V94S (antibody, name in Kabat numbering, V domains shown)
VH: QVQLVESGGGVVQPGRSLRLSCAASGFTFSNAWMHWVRQAPGKGLEWVAQIKAKSNNYATYYAESVKGRFTISRDDSKNSLYLQMNSLKTEDTAVYYCRYVHYGAYYGVDAWGQGTTVTVSS
VL: DIVMTQSPLSLPVTPGEPASISCRSSQSLVHSNRNTYLHWYQQKPGQAPRLLIYKVSNRFSGVPDRFSGSGSGTDFTLKISRVEAEDVGVYYCGQGTQSPYTFGQGTKLEIK
notes: one-arm IgG as m2
B9: GLS3000 V94L (antibody, name in Kabat numbering, V domains shown)
VH: QVQLVESGGGVVQPGRSLRLSCAASGFTFSNAWMHWVRQAPGKGLEWVAQIKAKSNNYATYYAESVKGRFTISRDDSKNSLYLQMNSLKTEDTAVYYCRYVHYGAYYGVDAWGQGTTVTVSS
VL: DIVMTQSPLSLPVTPGEPASISCRSSQSLVHSNRNTYLHWYQQKPGQAPRLLIYKVSNRFSGVPDRFSGSGSGTDFTLKISRVEAEDVGVYYCGQGTQLPYTFGQGTKLEIK
notes: one-arm IgG as m2
B10: GLS3000 V94I (antibody, name in Kabat numbering, V domains shown)
VH: QVQLVESGGGVVQPGRSLRLSCAASGFTFSNAWMHWVRQAPGKGLEWVAQIKAKSNNYATYYAESVKGRFTISRDDSKNSLYLQMNSLKTEDTAVYYCRYVHYGAYYGVDAWGQGTTVTVSS
VL: DIVMTQSPLSLPVTPGEPASISCRSSQSLVHSNRNTYLHWYQQKPGQAPRLLIYKVSNRFSGVPDRFSGSGSGTDFTLKISRVEAEDVGVYYCGQGTQIPYTFGQGTKLEIK
notes: one-arm IgG as m2
B11: GLS3000 V94P (antibody, name in Kabat numbering, V domains shown)
VH: QVQLVESGGGVVQPGRSLRLSCAASGFTFSNAWMHWVRQAPGKGLEWVAQIKAKSNNYATYYAESVKGRFTISRDDSKNSLYLQMNSLKTEDTAVYYCRYVHYGAYYGVDAWGQGTTVTVSS
VL: DIVMTQSPLSLPVTPGEPASISCRSSQSLVHSNRNTYLHWYQQKPGQAPRLLIYKVSNRFSGVPDRFSGSGSGTDFTLKISRVEAEDVGVYYCGQGTQPPYTFGQGTKLEIK
notes: one-arm IgG as m2
B12: GLS3000 V94Y (antibody, name in Kabat numbering, V domains shown)
VH: QVQLVESGGGVVQPGRSLRLSCAASGFTFSNAWMHWVRQAPGKGLEWVAQIKAKSNNYATYYAESVKGRFTISRDDSKNSLYLQMNSLKTEDTAVYYCRYVHYGAYYGVDAWGQGTTVTVSS
VL: DIVMTQSPLSLPVTPGEPASISCRSSQSLVHSNRNTYLHWYQQKPGQAPRLLIYKVSNRFSGVPDRFSGSGSGTDFTLKISRVEAEDVGVYYCGQGTQYPYTFGQGTKLEIK
notes: one-arm IgG as m2
B13: GLS3000 V94W (antibody, name in Kabat numbering, V domains shown)
VH: QVQLVESGGGVVQPGRSLRLSCAASGFTFSNAWMHWVRQAPGKGLEWVAQIKAKSNNYATYYAESVKGRFTISRDDSKNSLYLQMNSLKTEDTAVYYCRYVHYGAYYGVDAWGQGTTVTVSS
VL: DIVMTQSPLSLPVTPGEPASISCRSSQSLVHSNRNTYLHWYQQKPGQAPRLLIYKVSNRFSGVPDRFSGSGSGTDFTLKISRVEAEDVGVYYCGQGTQWPYTFGQGTKLEIK
notes: one-arm IgG as m2
B14: GLS3000 V94K (antibody, name in Kabat numbering, V domains shown)
VH: QVQLVESGGGVVQPGRSLRLSCAASGFTFSNAWMHWVRQAPGKGLEWVAQIKAKSNNYATYYAESVKGRFTISRDDSKNSLYLQMNSLKTEDTAVYYCRYVHYGAYYGVDAWGQGTTVTVSS
VL: DIVMTQSPLSLPVTPGEPASISCRSSQSLVHSNRNTYLHWYQQKPGQAPRLLIYKVSNRFSGVPDRFSGSGSGTDFTLKISRVEAEDVGVYYCGQGTQKPYTFGQGTKLEIK
notes: one-arm IgG as m2
B15: GLS3000 V94N (antibody, name in Kabat numbering, V domains shown)
VH: QVQLVESGGGVVQPGRSLRLSCAASGFTFSNAWMHWVRQAPGKGLEWVAQIKAKSNNYATYYAESVKGRFTISRDDSKNSLYLQMNSLKTEDTAVYYCRYVHYGAYYGVDAWGQGTTVTVSS
VL: DIVMTQSPLSLPVTPGEPASISCRSSQSLVHSNRNTYLHWYQQKPGQAPRLLIYKVSNRFSGVPDRFSGSGSGTDFTLKISRVEAEDVGVYYCGQGTQNPYTFGQGTKLEIK
notes: one-arm IgG as m2

T1 sequence (P07766 23-126): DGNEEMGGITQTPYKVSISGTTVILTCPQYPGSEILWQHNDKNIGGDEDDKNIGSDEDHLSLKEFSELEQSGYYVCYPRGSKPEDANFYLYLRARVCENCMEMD

This experiment concerns the target T1, CD3 epsilon homodimer protein (UniProt P07766 23-126).
T1 construct: also called CD3 (CD3 epsilon)
In words: SPR Biacore T200, CD3e homodimer on chip, vs unaltered GLS3000 antibody. Background: SPR reads the build-up and loss of mass on a sensor chip optically.
With B1, the “ratio of amounts bound (Z=Y/X)” value came to 0.71.
Consider B2, for which the “ratio of amounts bound (Z=Y/X)” value is 0.48.
As for B3, the “ratio of amounts bound (Z=Y/X)” value was 0.44.
The figure for B4 is 0.76; for B5 it is 0.66; for B6 it is 0.93.
On to B7, for which the “ratio of amounts bound (Z=Y/X)” value was determined as 0.78.
With B8, the “ratio of amounts bound (Z=Y/X)” value came to 0.93.
Turning to B9, the “ratio of amounts bound (Z=Y/X)” value is 0.44.
B10: the “ratio of amounts bound (Z=Y/X)” value came out at 0.66.
On to B11, for which the “ratio of amounts bound (Z=Y/X)” value was 1.26.
Regarding B12, the “ratio of amounts bound (Z=Y/X)” value was 0.63.
The figure for B13 is 0.58; for B14 it is 0.57.
To B15 belongs 1.05.
